This is an account of results in patent US20260022354, “TRANSPOSASES AND USES THEREOF” (Poseida Therapeutics, Inc., published 2026).

Substitutions are numbered along the chain they refer to.

This data set deals with T1, GFP1 Right TAL-PBx (synthetic).
T1 chain: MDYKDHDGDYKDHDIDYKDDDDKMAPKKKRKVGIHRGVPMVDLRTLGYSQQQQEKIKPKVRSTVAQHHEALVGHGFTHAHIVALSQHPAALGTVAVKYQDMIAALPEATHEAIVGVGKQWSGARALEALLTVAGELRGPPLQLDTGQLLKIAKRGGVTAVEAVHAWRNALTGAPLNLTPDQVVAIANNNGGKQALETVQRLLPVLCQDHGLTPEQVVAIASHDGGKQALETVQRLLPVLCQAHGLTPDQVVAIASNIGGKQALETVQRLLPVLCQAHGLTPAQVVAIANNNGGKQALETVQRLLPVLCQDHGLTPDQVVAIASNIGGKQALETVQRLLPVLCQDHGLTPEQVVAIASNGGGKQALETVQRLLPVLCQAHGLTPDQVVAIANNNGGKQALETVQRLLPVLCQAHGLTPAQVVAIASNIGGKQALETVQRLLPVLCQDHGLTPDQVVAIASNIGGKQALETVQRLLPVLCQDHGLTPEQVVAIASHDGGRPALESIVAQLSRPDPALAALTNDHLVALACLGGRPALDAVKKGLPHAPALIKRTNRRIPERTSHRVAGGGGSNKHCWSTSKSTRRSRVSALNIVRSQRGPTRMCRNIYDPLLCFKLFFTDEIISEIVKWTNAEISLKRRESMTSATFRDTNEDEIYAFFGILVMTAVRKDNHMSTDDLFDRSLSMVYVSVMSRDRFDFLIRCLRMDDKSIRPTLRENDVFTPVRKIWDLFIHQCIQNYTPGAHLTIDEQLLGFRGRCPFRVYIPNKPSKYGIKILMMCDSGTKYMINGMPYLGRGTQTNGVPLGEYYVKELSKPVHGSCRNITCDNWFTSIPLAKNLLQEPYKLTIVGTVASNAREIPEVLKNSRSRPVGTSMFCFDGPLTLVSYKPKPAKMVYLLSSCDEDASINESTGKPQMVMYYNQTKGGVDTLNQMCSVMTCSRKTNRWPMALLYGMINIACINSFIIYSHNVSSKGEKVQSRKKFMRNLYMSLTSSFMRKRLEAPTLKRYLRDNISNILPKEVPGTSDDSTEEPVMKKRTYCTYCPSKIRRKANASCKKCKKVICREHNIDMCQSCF
Description: cell_activity; HEK293T. The settings on record: tags: PBx fusion; chain copies: 2 (palindromic half-sites; inferred). The method, then:
Each reporter plasmid and donor plasmid were cotransfected into HEK293T cells with the GFP1 Right TAL-PBx expression plasmid (SEQ ID No. 77). […] HEK293T cells were plated in 24 well plates in 500 μL of DMEM medium supplemented with 10% FBS. The following day, a transfection mixture containing 50 ng of the TAL-ssSPB expression vector, 225 ng of the reporter plasmid, 225 ng of donor plasmid and 1 μL of JetPrime transfection reagent in a total volume of 50 μL of JetPrime buffer were assembled. The mixture was added to the HEK293T cells and the cells were incubated for four days at 37° C. at 5% CO2, splitting the cells 1:6 on day one. The percentage of on-target site-specific transposition positive cells for the various constructs were determined by FACS analysis on day 4.
When the reporter and donor plasmids are co-transfected into cells along with TAL-PBx, TAL-PBx catalyzes the excision of the transposon from the donor plasmid and its site-specific integration into the TTAA target site of the reporter plasmid. Following site-specific transposition, transcription, splicing, and translation, a reconstituted GFP coding sequence is produced (DNA SEQ ID No. 75; Amino acid SEQ ID No. 76) and fluorescence can be detected. The percentage of on-target site-specific transposition positive cells for the various spacer length constructs were determined by FACS analysis and the results are shown in Table 9.

B1: GFP1 Right 12bp TTTAAA (dsDNA)
DNA 1: TGCAGATGAACGCAATCTCCGGTTTAAATACTGACTGAAGTTCATCTGCA
DNA 2: TGCAGATGAACTTCAGTCAGTATTTAAACCGGAGATTGCGTTCATCTGCA
B1 showed an activity of 30.8 % GFP+ cells.

B2: GFP1 Right 12bp CTTAAA (dsDNA)
DNA 1: B1 DNA 1 with T23C
DNA 2: B1 DNA 2 with A28G
As for B2, the activity is 34.6 % GFP+ cells.

B3: GFP1 Right 13bp CTTAAC (dsDNA)
DNA 1: TGCAGATGAACGCAATCTCACGGCTTAACTACTGACCTGAAGTTCATCTGCA
DNA 2: TGCAGATGAACTTCAGGTCAGTAGTTAAGCCGTGAGATTGCGTTCATCTGCA
B3 had an activity of 20.9 % GFP+ cells.

B4: GFP1 Right 13bp TTTAAG (dsDNA)
DNA 1: B3 DNA 1 with C24T, C29G
DNA 2: B3 DNA 2 with G24C, G29A
Consider B4, for which the activity was determined as 32.2 % GFP+ cells.

B5: GFP1 Right 13bp CTTAAG (dsDNA)
DNA 1: B3 DNA 1 with C29G
DNA 2: B3 DNA 2 with G24C
In the case of B5, the activity amounted to 24.7 % GFP+ cells.

B6: GFP1 Right 13bp TTTAAA (dsDNA)
DNA 1: B3 DNA 1 with C24T, C29A
DNA 2: B3 DNA 2 with G24T, G29A
Take B6: the activity came to 27 % GFP+ cells.

B7: GFP1 Right 13bp CTTAAA (dsDNA)
DNA 1: B3 DNA 1 with C29A
DNA 2: B3 DNA 2 with G24T
The molecule B7 gave an activity of 32.8 % GFP+ cells.
